# Where two headings read alike, the source gives them in different places.
# B1: KB_A12_ShK: ShK toxin in VL CDR2 of KB_A12, IgG1 (antibody, V domains shown)
# VH: EVQLVESGGGLVRPGGSLRLSCAASGFTFSSYAMSWVRQAPGKGLEWVSAISGSGGSTYYADSVKGRFTISRDNTKNSLYLQMTSLRADDTAFYYCVKDFGPGYGTGWFDYWGPGTLVTVSS
# VL: QSVLTQPPSVSEAPRQRVTITCSGSSSNIGNNAVNWYQQLPGKAPKLLIYAAGRRSCIDTIPKSRCTAFQCKHSMKYRLSFCRKTCGTCANSGVSDRFSAAKSGTSASLAINGLRSEDEADYYCAAWDDSLNGYVFGTGTKLTVLG
# Columns and labels:
# human Kv1.3 (huKv1.3) = biological target: T1, human Kv1.3 (huKv1.3) (Homo sapiens, UniProt P22001); test: QPatch automated patch-clamp, CHO cells stably expressing human Kv1.3 (Examples 19-21); type: cell-based
# T1 construct: host or cells: CHO
# T1 sequence (P22001 whole entry): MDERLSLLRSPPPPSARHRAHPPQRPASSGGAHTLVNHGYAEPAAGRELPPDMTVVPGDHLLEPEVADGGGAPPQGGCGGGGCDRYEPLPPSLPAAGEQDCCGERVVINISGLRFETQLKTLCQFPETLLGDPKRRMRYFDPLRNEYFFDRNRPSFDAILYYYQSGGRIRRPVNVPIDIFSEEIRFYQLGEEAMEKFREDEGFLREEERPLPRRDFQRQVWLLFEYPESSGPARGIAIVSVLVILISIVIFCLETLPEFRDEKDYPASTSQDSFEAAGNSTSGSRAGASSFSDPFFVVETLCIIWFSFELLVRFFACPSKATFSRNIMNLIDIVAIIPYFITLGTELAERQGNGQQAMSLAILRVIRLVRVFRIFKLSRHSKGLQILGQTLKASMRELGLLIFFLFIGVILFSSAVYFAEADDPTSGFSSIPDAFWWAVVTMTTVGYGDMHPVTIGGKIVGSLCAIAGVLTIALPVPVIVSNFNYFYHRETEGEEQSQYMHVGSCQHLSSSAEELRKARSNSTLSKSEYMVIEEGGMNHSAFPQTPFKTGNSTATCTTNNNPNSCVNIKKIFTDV
# Procedure, shortened: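 Whole-cell currents were recorded in extracellular solution of 145 mM NaCl, 4 mM KCl, 2 mM CaCl2, 1 mM MgCl2, 10 mM HEPES, 10 mM glucose (pH 7.4), with a KF/KCl/EGTA pipette solution (pH 7.2). From -80 mV, +30 mV pulses of 300 ms were applied every 10 s, with four ascending KnotBody concentrations added extracellularly. Peak outward current was averaged (n = 3-6) and IC50 fitted from concentration-response curves.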
# human Kv1.1 (huKv1.1) = biological target: T2, human Kv1.1 (huKv1.1) (Homo sapiens, UniProt Q09470); test: QPatch automated patch-clamp, CHO-S cells expressing huKv1.1 (Examples 20-21); type: cell-based; details: four-point curves of FIG. 33, Table E20
# T2 construct: expressed in transfected cells; host or cells: Freestyle CHO-S
# T2 sequence (Q09470 whole entry): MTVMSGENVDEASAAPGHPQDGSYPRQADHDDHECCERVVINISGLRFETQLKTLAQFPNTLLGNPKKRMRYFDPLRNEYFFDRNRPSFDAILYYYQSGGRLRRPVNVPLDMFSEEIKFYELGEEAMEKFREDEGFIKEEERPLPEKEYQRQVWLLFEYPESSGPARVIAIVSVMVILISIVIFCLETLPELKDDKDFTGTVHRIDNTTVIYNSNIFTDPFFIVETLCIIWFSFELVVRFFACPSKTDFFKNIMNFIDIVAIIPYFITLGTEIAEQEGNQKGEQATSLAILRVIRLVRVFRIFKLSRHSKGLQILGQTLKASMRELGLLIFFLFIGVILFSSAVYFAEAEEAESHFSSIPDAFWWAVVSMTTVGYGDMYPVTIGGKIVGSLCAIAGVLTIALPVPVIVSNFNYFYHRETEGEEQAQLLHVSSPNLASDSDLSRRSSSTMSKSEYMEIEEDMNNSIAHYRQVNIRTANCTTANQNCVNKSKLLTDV
# Description: 1. The effect of these KnotBodies on cells expressing human Kv1.1 (huKv1.1) and Kv1.3 (huKv1.3) channels was assessed using QPatch automated patch-clamp platform (Sophion).
# To generate huKv1.1 expressing cells, Freestyle CHO-S cells (Cat. no. R80007, Life Technologies, California, USA) were transfected with pINT50-Tr plasmid encoding huKv1.1 gene using the MaxCyte STX (MaxCyte) transfection system. In pINT50-Tr plasmid, huKv1.1 gene is under the control of a CMV promoter. 64 µg of the plasmid DNA were added to 400 µl of Freestyle CHO-S cells (at a density of 1 × 10^8 cells/ml) in Electroporation Buffer (GE Healthcare Life Sciences, Cat. no. EPB1) in an OC-400 processing assembly (MaxCyte). Following electroporation, the cells were transferred to a well of a 24-well plate containing 200 U/ml DNAse I (Sigma, D4263) and incubated for 20 minutes at 37° C. and 5% CO2. The cells were then transferred into a 100 ml shaker flask containing 20 ml of CD Opticho Media (Thermo Fisher Scientific, Cat.No 12681-011,) supplemented with 8 mM L-Glut (Thermo Fisher Scientific, cat. no. 25030-024). The cells were incubated for 24 hours at 37° C. and 5% CO2 (and 75% humidity and shaking at 800 rpm) prior to testing using automated patch clamp electrophysiology.
# For the testing of Kv1.1 and Kv1.3, CHO-S expressing huKv1.1 (described above) or CHO cells stably expressing huKv1.3 (Charles River Lab) were analysed using the QPatch electrophysiology assay in the presence or absence of the KnotBody fusions. Internal and external physiological solutions were freshly prepared prior to the assay. The extracellular solution contained 145 mM NaCl, 4 mM KC1, 2 mM CaC12, 1 mM MgC12, 10 mM HEPES and 10 mM glucose; the pH was adjusted to 7.4 with NaOH; the osmolarity was ~ 305 mOsm/L. The intracellular solution contained: KF (120 mM), KC1 (20 mM), HEPES (10 mM) EGTA (10 mM); the pH was adjusted to 7.2 with KOH; osmolarity was ~ 300 mOsm/L.
# A series of depolarising voltage (channel activating) pulses were used to monitor the channel currents upon adding control (extracellular solution) to define a control baseline of current activity. To these measured control currents four, ascending concentrations of KnotBodies (including previously described KB_A12_ShK and KB_A12_KTX described in Example 8) or parental antibody isotypes (control molecules) were applied to the external bathing solution. KnotBodies KB_A12 and KB_A07 (EETI-II fusions) were used as isotype controls for the testing. From a holding voltage of -80 mV a depolarising, activating voltage pulses of […] were applied for 300 ms, every 10 seconds. The elicited, maximum outward current values measured during the activating step for each solution exchange period, averaged (n = 3 - 6 for each concentration applied) and plotted as concentration-response curves (see FIG. 33). From these concentration-response curves IC50 values were calculated (see Table E20).
# For the testing of Kv1.1 and Kv1.3, CHO-S expressing huKv1.1 (see Example 20 and below) or CHO cells stably expressing huKv1.3 (Charles River Lab) were analysed using the QPatch electrophysiology assay in the presence or absence of the KnotBody fusions - see details in Examples 19 and 20.
# In addition to the CHO-S transiently expressing huKv1.1 (described in Example 20), CHO-S cells with poly-clonal stable expression of huKv1.1 cells were also made and used in the QPatch electrophysiology assay. To generate the polyclonal stable huKv1.1 cells from the transiently expressing cells described in Example 20, after a 24 hour incubation period the selection antibiotic Puromycin (catalogue no. A1 1138-03, Life Technologies, California, USA) was added to culture media. Then, for the first 14 days puromycin was at 10 µg ml-1 media; at days 15-28 puromycin was at 20 µg ml-1 media. Cell cultures were seeded at 2.5 x 10^5 cells ml^-1 into fresh culture media and puromycin twice per week through this selection growth period. […]
molecule,measurement,setting,value
B1,Fold difference,"human Kv1.3 (huKv1.3); Kv1.1 IC50 over Kv1.3 IC50, Table E20",3
same,IC50,"human Kv1.3 (huKv1.3); four-point curves of FIG. 33, Table E20, read-out: Kv1.3 IC50",13 nM
same,IC50,"human Kv1.3 (huKv1.3); huKv1.3, four-point curves of FIG. 32, Table E19, read-out: IC50",8.6 nM
same,IC50,human Kv1.1 (huKv1.1),40 nM

# From patent US20230331827A1, “POTASSIUM CHANNEL INHIBITORS” (priority 2017, published 2023)
